Experimental data published in patent US20210206842A1 (NATIONAL RESEARCH COUNCIL OF CANADA, published 2021).

Assays:
[1] = molecular target: T1, VHH FC5; test: SPR, VHH flowed over immobilized FC5, 25 C
T1 construct: put together from its FR and CDR entries; also called FC5-VHH; FC5 control
Source text: (§1) Surface Plasmon Resonance for VHH antibodies. […] Monomeric VHH fractions were collected and protein concentration determined by measuring A280 measurement. Using a Biacore T200 instrument (GE Healthcare), approximately 500-1000 RUs of FC5DIE3IR, FC5 and an irrelevant VHH (2A3-H4) were immobilized on a CM5 Series S sensor chip (GE Healthcare) at pH 4.0 using standard amine coupling according to the manufacturer's instructions (GE Healthcare). […] Surfaces were regenerated by washing with a 120 s pulse of 10 mM glycine pH 1.5. Data were analyzed with Biacore T200 Software v 3.0 and affinities determined using steady state binding or a 1:1 binding model.
(§2) Surface Plasmon Resonance (SPR).

[2] = molecular target: T2, FC5DIE3IR recombinant protein; test: SPR (Biacore T200), VHH flowed over immobilized FC5DIE3IR, steady-state fit, 25 C
T2 construct: Made in CHO-3E7 cells; also called FC5DIE31R; FC5DIE3R
Source text: as §1, §2

T1 sequence (VHH, as listed by the source): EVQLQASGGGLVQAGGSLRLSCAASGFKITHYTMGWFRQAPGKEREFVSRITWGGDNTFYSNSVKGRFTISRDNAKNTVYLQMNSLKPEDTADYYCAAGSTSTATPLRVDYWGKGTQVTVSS

B1: VHH DI-48 (VHH)
VHH: QVQLVESGGGLVQAGGSLRLSCAASGRTFSTYVMGWFRQTPGKEREFVAGFSWSGDYAIYVNSVKGRFTISRDNAKNTVYLQMNSLRPEDTAVYYCAARQRGGYSGRSYYTGRNDYEYWGQGTQVTVSS
notes: From the FC5DIE3IR llama immune library; soluble tagged monomer in SPR; not shown: cmyc and His6 tags at the C-terminus
For B1, the binding result [1] was “no binding (tested: 312 nM-5000 nM)” and the Kd [2] was 8.4 µM.
